Test results taken from the supplement of paper PMC10724198.
± gives the standard deviation of the averaged measurements.

Assays:
Saccharomyces cerevisiae [1] = assay: protein stability index of tFT-peptide fusion (C-terminal peptide) (PSI (0-1 scale)); higher = more stable (slower turnover)
Description: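 MPS profiling in S. cerevisiae of the tFT-X12 degron library: putative degron peptides plus stable controls, 12 aa, fused to the C-terminus of a sfGFP-mCherry timer. Cells are FACS-sorted into 8 mCherry/sfGFP bins and deep-sequenced. PSI runs from 0 (unstable) to 1 (stable). Backgrounds are wild type, das1Δ and doa10Δ at 30 °C, and wild type, das1Δ, cdc34-1 and cdc53-1 at 37 °C; 2-3 technical replicates each.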

Saccharomyces cerevisiae [2] = assay: as above; conditions: genetic background: wild type; temperature: 30 C
[3] = genetic background: cdc34-1, temperature: 37 C
[4] = genetic background: cdc53-1, temperature: 37 C
[5] = genetic background: das1 deletion, temperature: 30 C
[6] = genetic background: das1 deletion, temperature: 37 C
[7] = genetic background: doa10 deletion, temperature: 30 C
[8] = genetic background: wild type, temperature: 30 C
[9] = genetic background: wild type, temperature: 37 C
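Note: PSI is a weighted mean of sequencing reads over stability bins, variants kept only with over 10 reads, mCherry proximal and sfGFP distal, peptide attached via GGGS linker.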

## WCAGCLGWWLQS
Saccharomyces cerevisiae [1]; [3]
  protein stability index: 0.683 ± 0.059
Saccharomyces cerevisiae [1]; [4]
  protein stability index: 0.8029 ± 0.003
Saccharomyces cerevisiae [1]; [5]
  protein stability index: 0.694 ± 0.015
Saccharomyces cerevisiae [1]; [6]
  protein stability index: 0.791 ± 0.014
Saccharomyces cerevisiae [1]; [7]
  protein stability index: 0.246 ± 0.01
Saccharomyces cerevisiae [1]; [8]
  protein stability index: 0.316 ± 0.038
Saccharomyces cerevisiae [1]; [9]
  protein stability index: 0.548 ± 0.012
Saccharomyces cerevisiae [2]
  protein stability index: 0.415 ± 0.028

## WCAMITVFCGSG
Saccharomyces cerevisiae [1]; [3]
  protein stability index: 0.268 ± 0.035
Saccharomyces cerevisiae [1]; [4]
  protein stability index: 0.29 ± 0.041
Saccharomyces cerevisiae [1]; [5]
  protein stability index: 0.214 ± 0.037
Saccharomyces cerevisiae [1]; [6]
  protein stability index: 0.4101 ± 0.0027
Saccharomyces cerevisiae [1]; [7]
  protein stability index: 0.179 ± 0.015
Saccharomyces cerevisiae [1]; [8]
  protein stability index: 0.208 ± 0.033
Saccharomyces cerevisiae [1]; [9]
  protein stability index: 0.3796 ± 0.0026
Saccharomyces cerevisiae [2]
  protein stability index: 0.34 ± 0.016

## WCAVRVWFGAAL
Saccharomyces cerevisiae [1]; [3]
  protein stability index: 0.648 ± 0.052
Saccharomyces cerevisiae [1]; [4]
  protein stability index: 0.676 ± 0.028
Saccharomyces cerevisiae [1]; [5]
  protein stability index: 0.5731 ± 0.0039
Saccharomyces cerevisiae [1]; [6]
  protein stability index: 0.693 ± 0.017
Saccharomyces cerevisiae [1]; [7]
  protein stability index: 0.3927 ± 0.0016
Saccharomyces cerevisiae [1]; [8]
  protein stability index: 0.424 ± 0.01
Saccharomyces cerevisiae [1]; [9]
  protein stability index: 0.56132 ± 0.00042
Saccharomyces cerevisiae [2]
  protein stability index: 0.505 ± 0.014

## WCCVFVARFFWL
Saccharomyces cerevisiae [1]; [3]
  protein stability index: 0.416 ± 0.013
Saccharomyces cerevisiae [1]; [4]
  protein stability index: 0.504 ± 0.013
Saccharomyces cerevisiae [1]; [5]
  protein stability index: 0.348 ± 0.031
Saccharomyces cerevisiae [1]; [6]
  protein stability index: 0.499 ± 0.014
Saccharomyces cerevisiae [1]; [7]
  protein stability index: 0.334 ± 0.0061
Saccharomyces cerevisiae [1]; [8]
  protein stability index: 0.342 ± 0.011
Saccharomyces cerevisiae [1]; [9]
  protein stability index: 0.44 ± 0.008
Saccharomyces cerevisiae [2]
  protein stability index: 0.413 ± 0.04

## WEISNFFGCFIG
Saccharomyces cerevisiae [1]; [3]
  protein stability index: 0.671 ± 0.031
Saccharomyces cerevisiae [1]; [4]
  protein stability index: 0.758 ± 0.026
Saccharomyces cerevisiae [1]; [5]
  protein stability index: 0.683 ± 0.044
Saccharomyces cerevisiae [1]; [6]
  protein stability index: 0.772 ± 0.017
Saccharomyces cerevisiae [1]; [7]
  protein stability index: 0.325 ± 0.0037
Saccharomyces cerevisiae [1]; [8]
  protein stability index: 0.365 ± 0.01
Saccharomyces cerevisiae [1]; [9]
  protein stability index: 0.552 ± 0.071
Saccharomyces cerevisiae [2]
  protein stability index: 0.428 ± 0.028

## WFFTDIVMLVRV
Saccharomyces cerevisiae [1]; [3]
  protein stability index: 0.126 ± 0.014
Saccharomyces cerevisiae [1]; [4]
  protein stability index: 0.12 ± 0.044
Saccharomyces cerevisiae [1]; [5]
  protein stability index: 0.192 ± 0.026
Saccharomyces cerevisiae [1]; [6]
  protein stability index: 0.277 ± 0.0094
Saccharomyces cerevisiae [1]; [7]
  protein stability index: 0.237 ± 0.0069
Saccharomyces cerevisiae [1]; [8]
  protein stability index: 0.193 ± 0.023
Saccharomyces cerevisiae [1]; [9]
  protein stability index: 0.233 ± 0.018
Saccharomyces cerevisiae [2]
  protein stability index: 0.273 ± 0.0098

## WFSVFTMSILSR
Saccharomyces cerevisiae [1]; [3]
  protein stability index: 0.416 ± 0.026
Saccharomyces cerevisiae [1]; [4]
  protein stability index: 0.479 ± 0.0075
Saccharomyces cerevisiae [1]; [5]
  protein stability index: 0.338 ± 0.028
Saccharomyces cerevisiae [1]; [6]
  protein stability index: 0.4963 ± 0.0024
Saccharomyces cerevisiae [1]; [7]
  protein stability index: 0.334 ± 0.004
Saccharomyces cerevisiae [1]; [8]
  protein stability index: 0.341 ± 0.018
Saccharomyces cerevisiae [1]; [9]
  protein stability index: 0.474 ± 0.01
Saccharomyces cerevisiae [2]
  protein stability index: 0.435 ± 0.0096

## WFWVAVGVVGGG
Saccharomyces cerevisiae [1]; [3]
  protein stability index: 0.496 ± 0.029
Saccharomyces cerevisiae [1]; [4]
  protein stability index: 0.534 ± 0.022
Saccharomyces cerevisiae [1]; [5]
  protein stability index: 0.356 ± 0.032
Saccharomyces cerevisiae [1]; [6]
  protein stability index: 0.5243 ± 0.0031
Saccharomyces cerevisiae [1]; [7]
  protein stability index: 0.326 ± 0.016
Saccharomyces cerevisiae [1]; [8]
  protein stability index: 0.358 ± 0.015
Saccharomyces cerevisiae [1]; [9]
  protein stability index: 0.5 ± 0.0082
Saccharomyces cerevisiae [2]
  protein stability index: 0.449 ± 0.014

## WGCIFWFFDVRV
Saccharomyces cerevisiae [1]; [3]
  protein stability index: 0.193 ± 0.0065
Saccharomyces cerevisiae [1]; [4]
  protein stability index: 0.335 ± 0.015
Saccharomyces cerevisiae [1]; [5]
  protein stability index: 0.229 ± 0.023
Saccharomyces cerevisiae [1]; [6]
  protein stability index: 0.416 ± 0.018
Saccharomyces cerevisiae [1]; [7]
  protein stability index: 0.203 ± 0.0046
Saccharomyces cerevisiae [1]; [8]
  protein stability index: 0.207 ± 0.025
Saccharomyces cerevisiae [1]; [9]
  protein stability index: 0.402 ± 0.026
Saccharomyces cerevisiae [2]
  protein stability index: 0.386 ± 0.027

## WGGEFLSLTLSS
Saccharomyces cerevisiae [1]; [3]
  protein stability index: 0.732 ± 0.028
Saccharomyces cerevisiae [1]; [4]
  protein stability index: 0.761 ± 0.018
Saccharomyces cerevisiae [1]; [5]
  protein stability index: 0.664 ± 0.02
Saccharomyces cerevisiae [1]; [6]
  protein stability index: 0.7821 ± 0.0073
Saccharomyces cerevisiae [1]; [7]
  protein stability index: 0.679 ± 0.025
Saccharomyces cerevisiae [1]; [8]
  protein stability index: 0.683 ± 0.021
Saccharomyces cerevisiae [1]; [9]
  protein stability index: 0.743 ± 0.025
Saccharomyces cerevisiae [2]
  protein stability index: 0.684 ± 0.027

## WGIPRRPTLFIP
Saccharomyces cerevisiae [1]; [3]
  protein stability index: 0.65 ± 0.0098
Saccharomyces cerevisiae [1]; [4]
  protein stability index: 0.749 ± 0.03
Saccharomyces cerevisiae [1]; [5]
  protein stability index: 0.658 ± 0.011
Saccharomyces cerevisiae [1]; [6]
  protein stability index: 0.7417 ± 0.00092
Saccharomyces cerevisiae [1]; [7]
  protein stability index: 0.296 ± 0.023
Saccharomyces cerevisiae [1]; [8]
  protein stability index: 0.325 ± 0.035
Saccharomyces cerevisiae [1]; [9]
  protein stability index: 0.5193 ± 0.0044
Saccharomyces cerevisiae [2]
  protein stability index: 0.434 ± 0.015

## WHLLRFETQMFC
Saccharomyces cerevisiae [1]; [3]
  protein stability index: 0.571 ± 0.018
Saccharomyces cerevisiae [1]; [4]
  protein stability index: 0.7091 ± 0.0027
Saccharomyces cerevisiae [1]; [5]
  protein stability index: 0.611 ± 0.037
Saccharomyces cerevisiae [1]; [6]
  protein stability index: 0.712 ± 0.022
Saccharomyces cerevisiae [1]; [7]
  protein stability index: 0.151 ± 0.028
Saccharomyces cerevisiae [1]; [8]
  protein stability index: 0.164 ± 0.016
Saccharomyces cerevisiae [1]; [9]
  protein stability index: 0.337 ± 0.0026
Saccharomyces cerevisiae [2]
  protein stability index: 0.172 ± 0.049

## WHVSLRFAFYVF
Saccharomyces cerevisiae [1]; [3]
  protein stability index: 0.2459 ± 0.0022
Saccharomyces cerevisiae [1]; [4]
  protein stability index: 0.326 ± 0.02
Saccharomyces cerevisiae [1]; [5]
  protein stability index: 0.235 ± 0.019
Saccharomyces cerevisiae [1]; [6]
  protein stability index: 0.342 ± 0.011
Saccharomyces cerevisiae [1]; [7]
  protein stability index: 0.136 ± 0.0056
Saccharomyces cerevisiae [1]; [8]
  protein stability index: 0.158 ± 0.018
Saccharomyces cerevisiae [1]; [9]
  protein stability index: 0.263 ± 0.0032
Saccharomyces cerevisiae [2]
  protein stability index: 0.22 ± 0.12

## WIVQCCLYVPVQ
Saccharomyces cerevisiae [1]; [3]
  protein stability index: 0.288 ± 0.011
Saccharomyces cerevisiae [1]; [4]
  protein stability index: 0.314 ± 0.017
Saccharomyces cerevisiae [1]; [5]
  protein stability index: 0.25 ± 0.025
Saccharomyces cerevisiae [1]; [6]
  protein stability index: 0.3619 ± 0.0011
Saccharomyces cerevisiae [1]; [7]
  protein stability index: 0.212 ± 0.0053
Saccharomyces cerevisiae [1]; [8]
  protein stability index: 0.237 ± 0.02
Saccharomyces cerevisiae [1]; [9]
  protein stability index: 0.356 ± 0.024
Saccharomyces cerevisiae [2]
  protein stability index: 0.377 ± 0.0076

## WIYKIVTYEKKS
Saccharomyces cerevisiae [1]; [3]
  protein stability index: 0.701 ± 0.05
Saccharomyces cerevisiae [1]; [4]
  protein stability index: 0.701 ± 0.03
Saccharomyces cerevisiae [1]; [5]
  protein stability index: 0.648 ± 0.041
Saccharomyces cerevisiae [1]; [6]
  protein stability index: 0.705 ± 0.029
Saccharomyces cerevisiae [1]; [7]
  protein stability index: 0.633 ± 0.038
Saccharomyces cerevisiae [1]; [8]
  protein stability index: 0.633 ± 0.036
Saccharomyces cerevisiae [1]; [9]
  protein stability index: 0.702 ± 0.0082
Saccharomyces cerevisiae [2]
  protein stability index: 0.145 ± 0.049

## WLGLFAFRRCLV
Saccharomyces cerevisiae [1]; [3]
  protein stability index: 0.544 ± 0.03
Saccharomyces cerevisiae [1]; [4]
  protein stability index: 0.583 ± 0.013
Saccharomyces cerevisiae [1]; [5]
  protein stability index: 0.463 ± 0.018
Saccharomyces cerevisiae [1]; [6]
  protein stability index: 0.5898 ± 0.0041
Saccharomyces cerevisiae [1]; [7]
  protein stability index: 0.194 ± 0.012
Saccharomyces cerevisiae [1]; [8]
  protein stability index: 0.223 ± 0.025
Saccharomyces cerevisiae [1]; [9]
  protein stability index: 0.3983 ± 0.0017
Saccharomyces cerevisiae [2]
  protein stability index: 0.31 ± 0.018

## WLVIWPRKLSTV
Saccharomyces cerevisiae [1]; [3]
  protein stability index: 0.588 ± 0.039
Saccharomyces cerevisiae [1]; [4]
  protein stability index: 0.632 ± 0.005
Saccharomyces cerevisiae [1]; [5]
  protein stability index: 0.477 ± 0.027
Saccharomyces cerevisiae [1]; [6]
  protein stability index: 0.6179 ± 0.0036
Saccharomyces cerevisiae [1]; [7]
  protein stability index: 0.359 ± 0.014
Saccharomyces cerevisiae [1]; [8]
  protein stability index: 0.397 ± 0.022
Saccharomyces cerevisiae [1]; [9]
  protein stability index: 0.573 ± 0.031
Saccharomyces cerevisiae [2]
  protein stability index: 0.481 ± 0.0083

## WLVVGGVVLLVV
Saccharomyces cerevisiae [1]; [3]
  protein stability index: 0.246 ± 0.029
Saccharomyces cerevisiae [1]; [4]
  protein stability index: 0.28548 ± 0.00015
Saccharomyces cerevisiae [1]; [5]
  protein stability index: 0.213 ± 0.033
Saccharomyces cerevisiae [1]; [6]
  protein stability index: 0.395 ± 0.009
Saccharomyces cerevisiae [1]; [7]
  protein stability index: 0.175 ± 0.0046
Saccharomyces cerevisiae [1]; [8]
  protein stability index: 0.197 ± 0.026
Saccharomyces cerevisiae [1]; [9]
  protein stability index: 0.37 ± 0.0047
Saccharomyces cerevisiae [2]
  protein stability index: 0.252 ± 0.0089

## WRLRIAAVVRSS
Saccharomyces cerevisiae [1]; [3]
  protein stability index: 0.556 ± 0.047
Saccharomyces cerevisiae [1]; [4]
  protein stability index: 0.655 ± 0.031
Saccharomyces cerevisiae [1]; [5]
  protein stability index: 0.586 ± 0.011
Saccharomyces cerevisiae [1]; [6]
  protein stability index: 0.6471 ± 0.0012
Saccharomyces cerevisiae [1]; [7]
  protein stability index: 0.123 ± 0.0017
Saccharomyces cerevisiae [1]; [8]
  protein stability index: 0.142 ± 0.021
Saccharomyces cerevisiae [1]; [9]
  protein stability index: 0.287 ± 0.016
Saccharomyces cerevisiae [2]
  protein stability index: 0.281 ± 0.028
